Laboratory results reported in patent US20190022242A1 (AbbVie / Abbott, published 2019).

What was measured:
[1] = target: T1, hMMP16ECD(E247A)-Fc (human, UniProt P51512 32-564); assay: MSD ELISA, plate coated with hMMP16ECD(E247A)-Fc at 2 ug/mL, antibody 0.5 ug/mL
T1 construct: IgK signal peptide upstream (cleaved); also called phMMP16ECD(E247A)-Fc; not shown: human IgG2 Fc protein

[2] = target: T2, hMMP16ECD(E247A)-His (human, UniProt P51512 32-564); assay: colorimetric ELISA, plate coated with hMMP16-his at 3 ug/mL, antibody 0.5 ug/mL
T2 construct: IgK signal peptide upstream (cleaved); also called hMMP16-his; hMMP16-His protein
T2 sequence (P51512 other isoform, or with tags, fused parts or gaps E247A E247A): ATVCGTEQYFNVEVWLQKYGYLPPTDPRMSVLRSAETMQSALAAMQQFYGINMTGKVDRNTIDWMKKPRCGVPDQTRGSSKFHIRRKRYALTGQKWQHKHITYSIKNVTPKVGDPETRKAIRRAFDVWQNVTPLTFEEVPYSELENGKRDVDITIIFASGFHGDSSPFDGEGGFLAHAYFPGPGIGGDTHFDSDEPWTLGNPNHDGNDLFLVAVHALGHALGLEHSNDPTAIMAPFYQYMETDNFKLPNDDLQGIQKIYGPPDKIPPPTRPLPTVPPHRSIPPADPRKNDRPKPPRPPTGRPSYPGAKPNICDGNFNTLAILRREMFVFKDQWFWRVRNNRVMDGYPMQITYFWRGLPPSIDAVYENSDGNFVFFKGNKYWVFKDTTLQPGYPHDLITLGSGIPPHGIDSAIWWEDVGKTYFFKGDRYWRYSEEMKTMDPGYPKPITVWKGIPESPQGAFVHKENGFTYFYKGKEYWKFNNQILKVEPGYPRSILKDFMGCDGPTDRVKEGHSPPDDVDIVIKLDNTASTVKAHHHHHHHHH

T1 sequence (P51512 32-564 E247A): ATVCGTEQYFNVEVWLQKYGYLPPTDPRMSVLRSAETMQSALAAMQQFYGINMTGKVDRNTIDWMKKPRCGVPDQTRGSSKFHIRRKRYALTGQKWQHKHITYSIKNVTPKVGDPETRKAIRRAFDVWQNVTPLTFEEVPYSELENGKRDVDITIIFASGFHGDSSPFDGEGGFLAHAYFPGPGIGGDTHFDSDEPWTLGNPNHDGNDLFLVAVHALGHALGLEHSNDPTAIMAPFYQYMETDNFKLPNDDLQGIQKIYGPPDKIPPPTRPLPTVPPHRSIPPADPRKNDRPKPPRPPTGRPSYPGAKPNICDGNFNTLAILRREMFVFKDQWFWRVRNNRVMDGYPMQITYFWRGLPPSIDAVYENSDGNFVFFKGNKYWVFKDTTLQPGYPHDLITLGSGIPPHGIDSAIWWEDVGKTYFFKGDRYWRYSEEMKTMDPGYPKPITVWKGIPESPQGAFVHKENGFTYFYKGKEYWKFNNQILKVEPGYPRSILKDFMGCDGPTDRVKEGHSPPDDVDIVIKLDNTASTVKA

Row | binding result [1] | binding result [2] | Binder
1 | binds |  | SC73.17 (antibody, V domains shown, Murine hybridoma antibody, first inoculation campaign) VH: EVQLQQSGAELVKPGASVKLSCTASGFNFKDTYMHWVKQRPEQGLEWIGRIDPAIGITEYGPKFQGKATITADTSSNTAYLQLSSLTSEDTAVYYCTRGDFYGNSLDVWGAGTTVTVSS VL: DIVMTQSPATLSVTPGDRVSLSCRASQIISDYLHWYRQKSHESPRLLIKYASQSISGIPSRFSGSGSGSDFTLSINSVEPEDVGVYYCQNGHSFPLTFGTGTKLELK
2 |  | binds | SC73.101 (antibody, V domains shown, Murine hybridoma antibody, second inoculation campaign; mouse IgG2a was used as its isotype control in IHC; also called anti-MMP16 antibody (clone SC73.101)) VH: QIHLVQSGPELKKPGETVKISCKASGYTFTDYSMHWVKQAPGKGLKWMGWINTETGEPTYPDDFKGRFAFSLETSASTAYLQINNLKNEDTATYFCARGYGYDETGTFAYWGQGTLVTVSA VL: not shown
